The values below come from paper PMC10300302 (Cell Insight, 2023).

This assay concerns the target T1, GST-Sirt1 (human, UniProt Q96EB6 1-747).
T1 sequence (looked up): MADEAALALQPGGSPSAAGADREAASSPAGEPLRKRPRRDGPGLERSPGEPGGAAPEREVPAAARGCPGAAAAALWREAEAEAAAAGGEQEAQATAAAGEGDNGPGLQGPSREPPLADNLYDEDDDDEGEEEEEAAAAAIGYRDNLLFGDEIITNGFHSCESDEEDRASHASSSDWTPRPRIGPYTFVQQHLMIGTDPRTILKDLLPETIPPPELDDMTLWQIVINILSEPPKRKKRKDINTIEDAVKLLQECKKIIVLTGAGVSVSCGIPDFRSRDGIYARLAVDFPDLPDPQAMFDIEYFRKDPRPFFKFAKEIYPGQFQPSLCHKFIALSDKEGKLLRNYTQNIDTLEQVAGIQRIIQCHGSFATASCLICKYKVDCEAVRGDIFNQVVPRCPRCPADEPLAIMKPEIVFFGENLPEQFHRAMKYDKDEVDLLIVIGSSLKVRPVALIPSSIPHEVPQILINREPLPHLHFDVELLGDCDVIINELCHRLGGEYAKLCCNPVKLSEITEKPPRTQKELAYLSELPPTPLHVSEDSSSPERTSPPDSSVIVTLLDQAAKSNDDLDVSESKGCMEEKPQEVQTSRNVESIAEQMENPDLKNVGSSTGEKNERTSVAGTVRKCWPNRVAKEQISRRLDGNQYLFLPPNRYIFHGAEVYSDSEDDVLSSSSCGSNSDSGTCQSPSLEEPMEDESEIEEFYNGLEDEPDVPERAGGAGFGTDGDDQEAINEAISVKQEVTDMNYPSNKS
Description: pull-down.

B1: MBP-CHCHD2-His (CHCHD2-isoform2) (natural protein, human, UniProt Q9Y6H1 1-151, looked up)
chain: MPRGSRSRTSRMAPPASRAPQMRAAPRPAPVAQPPAAAPPSAVGSSAAAPRQPGLMAQMATTAAGVAVGSAVGHTLGHAITGGFSGGSNAEPARPDITYQEPQGTQPAQQQQPCLYEIKQFLECAQNQGDIKLCEGFNEVLKQCRLANGLA
For the molecule B1, the binding result is “binds”.
